Reference: patent publication US20240360242A1 (KISOJI BIOTECHNOLOGY, published 2024)
Where two headings read alike, the source gives them in different places.

T1: recombinant human TROP2 extracellular domain (aa 1-274) comprising His tag (human, UniProt P09758 27-274)
T1 construct: Used here for all assays on recombinant human TROP2 (ELISA, immunoblot, SPR, crystal), although only some of them name the catalogue number; also called human recombinant TROP2; recombinant human TROP2 protein; not shown: His tag
T1 sequence: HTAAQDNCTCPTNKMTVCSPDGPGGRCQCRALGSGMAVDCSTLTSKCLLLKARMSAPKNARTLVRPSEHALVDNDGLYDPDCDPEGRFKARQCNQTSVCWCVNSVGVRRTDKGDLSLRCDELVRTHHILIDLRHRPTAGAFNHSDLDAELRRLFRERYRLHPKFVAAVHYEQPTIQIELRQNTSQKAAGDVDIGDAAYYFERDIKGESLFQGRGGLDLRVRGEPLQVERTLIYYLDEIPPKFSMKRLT


Assays:
[1] = molecular target: T1, recombinant human TROP2 extracellular …; assay: ELISA, coated rh TROP2
Description: (§1) Human TROP2 recombinant proteins were coated on 96-well ELISA plates at the concentration of 1 μg/mL. Plates were covered with adhesive plate cover and stored at 4° C. overnight. The next day, plates were washed 3× with washing buffer (PBS with 0.1% Tween™ 20). Plates were blocked with 2% fat-free BSA in washing buffer for 1 hour at 37° C. During the incubation time, the TROP2 reference antibodies, as well as the humanized variants, were diluted in the blocking buffer to the indicated concentrations. […] After blocking, the blocking buffer was removed from the wells and 100 μL of anti-TROP2 sdAbs dilutions were transferred to the corresponding wells. Plates were covered with adhesive plates cover and incubated at 37° C. for 1 hour. During the primary antibody incubation, the secondary antibody (goat anti-human IgG, HRP conjugated) was diluted 1 in 5000 with the blocking buffer. Plates were washed 3× with blocking buffer, followed by secondary antibody incubation for another 1 hour at 37° C. After the secondary antibody incubation, plates were washed 3× with washing buffer and added with 100 μL of ELISA chemiluminescent substrate (Thermofisher). The luminescence signal was detected by SpectraMax i3x at […].

[2] = molecular target: T1, recombinant human TROP2 extracellular …; assay: ELISA, coated rh TROP2, normalized to KD005
[3] = molecular target: T1, recombinant human TROP2 extracellular …; assay: ELISA on coated recombinant human TROP2, 0.00256-200 nM, RLU
Description: as §1

[4] = molecular target: T1, recombinant human TROP2 extracellular …; assay: ELISA, coated rh TROP2; remark: listed apart in the source
Description: as §1

EC50 [1] [nM] | EC50% to KD005 [1] | EC50 relative to KD005 [2] | binding result [3] | EC50 [4] [nM] | Binder
0.07 | 0.875 ratio to KD005 | 0.93 ratio to KD005 |  |  | KD054 (antibody, V domains shown, KD005 humanized variant) VH: QVQLQESGGGLIQPGGSLRLSCAASGFTFSGSDMSWVRQAPGKGLEWVSYITSGGTTYYADTVKGRFTISRDNSKNTLYLQMNSLRAEDTAVYRCAKSRLTDSHYVEDAWGQGTLVTVSS
0.08 | 1 ratio to KD005 | 0.9 ratio to KD005 |  |  | KD046 (antibody, V domains shown, KD005 humanized variant) VH: QVQLLESGGGLVQPGGSLRLSCAASGFTFSGSDMSWVRQAPGKGPEWVSYITSGGTTYYADTVKGRFTISRDNSKNTLYLQMNSLRAEDTAVYYCAKSRLTDSHYVEDAWGQGTLVTVSS
0.07 | 0.875 ratio to KD005 | 0.93 ratio to KD005 |  |  | KD052 (antibody, V domains shown, KD005 humanized variant) VH: EVQLVESGGGLIQPGGSLRLSCAASGFTFSGSDMSWVRQAPGKGLEWVSVITSGGTTYYADTVKGRFTISRDNSKNTLYLQMNSLRAEDTAVYYCAKSRLTDSHYVEDAWGQGTLVTVSS
0.09 | 1.12 ratio to KD005 | 1.15 ratio to KD005 |  |  | KD057 (antibody, V domains shown, KD005 humanized variant) VH: QVQLQESGGGLIQPGGSLRLSCAASGFTFSGSDMSWVRQAPGKGLEWVSVITSGGTTYYADTVKGRFTISRDNSKNTLYLQMNSLRAEDTAVYRCAKSRLTDSHYVEDAWGQGTLVTVSS
0.09 | 1.12 ratio to KD005 | 1.01 ratio to KD005 |  |  | KD043 (antibody, V domains shown, KD005 humanized variant) VH: EVQLLESGGGLVQPGGSLRLSCAASGFTFSGSDMSWVRQAPGKGLEWVSAITSGGTTYYADTVKGRFTISRDNSKNTLYLQMNSLRAEDTAVYYCAKSRLTDSHYVEDAWGQGTLVTVSS
0.08 | 1 ratio to KD005 | 1.12 ratio to KD005 |  |  | KD055 (antibody, V domains shown, KD005 humanized variant) VH: EVQLQESGGGLIQPGGSLRLSCAASGFTFSGSDMSWVRQAPGKGLEWVSYITSGGTTYYADTVKGRFTISRDNSKNTLYLQMNSLRAEDTAVYRCAKSRLTDSHYVEDAWGQGTLVTVSS
0.09 | 1.12 ratio to KD005 | 1.21 ratio to KD005 |  |  | KD056 (antibody, V domains shown, KD005 humanized variant) VH: QVQLVESGGGLIQPGGSLRLSCAASGFTFSGSDMSWVRQAPGKGLEWVSYITSGGTTYYADTVKGRFTISRDNSKNTLYLQMNSLRAEDTAVYRCAKSRLTDSHYVEDAWGQGTLVTVSS
0.1 | 1.25 ratio to KD005 | 1.12 ratio to KD005 |  |  | KD050 (antibody, V domains shown, KD005 humanized variant) VH: QVQLQESGGGLVQPGGSLRLSCAASGFTFSGSDMSWVRQAPGKGPEWVSYITSGGTTYYPDTVKGRFTISRDNSKNTLYLQMNSLKPDDTAVYRCAKSRLTDSHYVEDAWGQGTQVTVSS
0.09 | 1.12 ratio to KD005 | 1.01 ratio to KD005 |  |  | KD045 (antibody, V domains shown, KD005 humanized variant) VH: EVQLLESGGGLVQPGGSLRLSCAASGFTFSGSDMSWVRQAPGKGLEWVSYITSGGTTYYADTVKGRFTISRDNSKNTLYLQMNSLRAEDTAVYRCAKSRLTDSHYVEDAWGQGTLVTVSS
0.08 | 1 ratio to KD005 | 0.9 ratio to KD005 |  |  | KD044 (antibody, V domains shown, KD005 humanized variant) VH: EVQLLESGGGLVQPGGSLRLSCAASGFTFSGSDMSWVRQAPGKGLEWVSYITSGGTTYYADTVKGRFTISRDNSKNTLYLQMNSLRAEDTAVYYCAKSRLTDSHYVEDAWGQGTLVTVSS
 |  |  | binds |  | KD020 (antibody, V domains shown, KD002 humanized variant) VH: EVQLVESGGGLVQPGGSLRLSCAASGFPFSSADMHWVRQAPGKGLVWVSRINADGSKTSYADTVKGRFTISRDNAKNTLYLQMNSLRAEDTAVYYCARAKLTDTHYVEDYWGQGTLVTVSS
 |  |  |  | 0.05 | KD040 (antibody, V domains shown, KD002 humanized variant) VH: QVQLQESGGGLVQPGGSLRLSCAASGFPFSSADMSWVRQAPGKQREWVSYINADGSKTYYADTVKGRFTISRDNSKNTLYLQMNSLRAEDTAVYRCARAKLTDTHYVEDYWGQGTMVTVSS
 |  |  |  | 0.13 | KD034 (antibody, V domains shown, KD002 humanized variant) VH: QVQLQESGGGLVQPGGSLRLSCAASGFPFSSADMSWVRQAPGKGLEWVSYINADGSKTYYADTVKGRFTISRDNSKNTLYLQMNSLRAEDTAVYYCARAKLTDTHYVEDYWGQGTMVTVSS
 |  |  |  | 0.13 | KD033 (antibody, V domains shown, KD002 humanized variant) VH: QVQLQESGGGLVQPGGSLRLSCAASGFPFSSADMSWVRQAPGKGLEWVSVINADGSKTYYADTVKGRFTISRDNSKNTLYLQMNSLRAEDTAVYRCARAKLTDTHYVEDYWGQGTMVTVSS
 |  |  |  | 0.15 | KD032 (antibody, V domains shown, KD002 humanized variant) VH: QVQLLESGGGLVQPGGSLRLSCAASGFPFSSADMSWVRQAPGKGLEWVSYINADGSKTYYADTVKGRFTISRDNSKNTLYLQMNSLRAEDTAVYRCARAKLTDTHYVEDYWGQGTMVTVSS
 |  |  |  | 0.15 | KD041 (antibody, V domains shown, KD002 humanized variant) VH: QVQLQESGGGLVQPGGSLRLSCAASGFPFSSADMSWVRQAPGKGLEWVSYINAEGSKTYYADTVKGRFTISRDNSKNTLYLQMNSLRAEDTAVYRCARAKLTDTHYVEDYWGQGTMVTVSS
 |  |  |  | 0.07 | KD042 (antibody, V domains shown, KD002 humanized variant) VH: QVQLQESGGGLVQPGGSLRLSCAASGFPFSSADMSWVRQAPGKGLEWVSYINANGSKTYYADTVKGRFTISRDNSKNTLYLQMNSLRAEDTAVYRCARAKLTDTHYVEDYWGQGTMVTVSS
 |  |  |  | 0.15 | KD039 (antibody, V domains shown, KD002 humanized variant) VH: QVQLQESGGGMVQPGGSLRLSCAASGFPFSSADMSWVRQAPGKGLEWVSYINADGSKTYYADTVKGRFTISRDNSKNTLYLQMNSLRAEDTAVYRCARAKLTDTHYVEDYWGQGTQVTVSS
 |  |  |  | 0.12 | KD035 (antibody, V domains shown, KD002 humanized variant) VH: QVQLQESGGGLVQPGGSLRLSCAASGFPFSSADMSWVRQAPGKGPEWVSYINADGSKTYYADTVKGRFTISRDNSKNTLYLQMNSLRAEDTAVYRCARAKLTDTHYVEDYWGQGTMVTVSS
 |  |  |  | 0.18 | KD037 (antibody, V domains shown, KD002 humanized variant) VH: QVQLQESGGGLVQPGGSLRLSCAASGFPFSSADMSWVRQAPGKGLEWVSYINADGSKTYYADTVKGRFTISRDNSKNTLYLQMNNLRAEDTAVYRCARAKLTDTHYVEDYWGQGTMVTVSS
 |  |  |  | 0.13 | KD036 (antibody, V domains shown, KD002 humanized variant) VH: QVQLQESGGGLVQPGGSLRLSCAASGFPFSSADMSWVRQAPGKGLEWVSYINADGSKTYYPDTVKGRFTISRDNSKNTLYLQMNSLRAEDTAVYRCARAKLTDTHYVEDYWGQGTMVTVSS
 |  |  |  | 0.26 | KD038 (antibody, V domains shown, KD002 humanized variant) VH: QVQLQESGGGLVQPGGSLRLSCAASGFPFSSADMSWVRQAPGKGLEWVSYINADGSKTYYADTVKGRFTISRDNSKNTLYLQMNSLRAEDTALYRCARAKLTDTHYVEDYWGQGTMVTVSS
